Measurements published in IntAct's records for PubMed 20723757.

B1: Monopolin complex subunit pcs1 (Schizosaccharomyces pombe (strain ATCC 38366 / 972)), O13684 (parent)
chain: MRKNNMQTSKDSELKEQAKGKSSKLIHKLPKQRTRISQGQMHSTQDFVNNEDQDAYSVRENENELHINNSGMSELNKKLQLPNVELSTLSHTQEQEFNELNKLIRKINELQEFYLLEDLAKPVTNAGADADDTIVKDLKKELENEKKANHSLKNELLKTREQIKNYSKINILIKELFGLEVADCIEDEDGYRFNCKNTGRRGTLEYQLLLDDQNFTFTPRLNVQTDEELMKHLPDYLLEEIIFTKEQGKLFSARLMKALQD
partner: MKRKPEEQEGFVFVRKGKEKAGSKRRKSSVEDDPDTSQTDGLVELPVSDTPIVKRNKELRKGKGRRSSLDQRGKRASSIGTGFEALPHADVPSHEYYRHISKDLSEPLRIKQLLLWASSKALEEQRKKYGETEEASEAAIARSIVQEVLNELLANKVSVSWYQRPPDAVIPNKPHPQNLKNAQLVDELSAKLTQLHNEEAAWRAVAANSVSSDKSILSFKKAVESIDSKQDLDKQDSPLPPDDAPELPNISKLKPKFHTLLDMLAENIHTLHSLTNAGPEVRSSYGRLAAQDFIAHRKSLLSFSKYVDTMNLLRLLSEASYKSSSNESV
B2: Monopolin complex subunit pcs1 (Schizosaccharomyces pombe (strain ATCC 38366 / 972)), O13684 (parent)
chain: B1 chain
partner: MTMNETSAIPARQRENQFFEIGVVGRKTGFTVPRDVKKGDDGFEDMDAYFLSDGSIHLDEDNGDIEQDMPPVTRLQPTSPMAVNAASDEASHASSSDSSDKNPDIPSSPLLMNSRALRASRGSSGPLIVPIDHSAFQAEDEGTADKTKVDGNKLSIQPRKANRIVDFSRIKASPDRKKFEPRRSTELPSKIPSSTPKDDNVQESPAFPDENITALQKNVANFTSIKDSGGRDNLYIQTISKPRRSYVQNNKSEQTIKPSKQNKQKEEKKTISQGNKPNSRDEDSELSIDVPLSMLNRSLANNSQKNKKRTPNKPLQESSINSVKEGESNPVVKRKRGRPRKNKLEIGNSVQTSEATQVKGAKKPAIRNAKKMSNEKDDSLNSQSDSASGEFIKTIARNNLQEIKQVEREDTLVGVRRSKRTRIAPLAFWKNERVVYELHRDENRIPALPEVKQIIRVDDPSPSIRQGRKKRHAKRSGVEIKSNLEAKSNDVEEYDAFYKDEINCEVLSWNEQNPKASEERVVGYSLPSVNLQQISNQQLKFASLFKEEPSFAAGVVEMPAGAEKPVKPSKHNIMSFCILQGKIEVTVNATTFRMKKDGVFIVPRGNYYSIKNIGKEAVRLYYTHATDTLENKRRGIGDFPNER
B3: Monopolin complex subunit CSM1 (Saccharomyces cerevisiae), P25651 (parent)
chain: MDPLTVYKNSVKQQIDSADLLVANLVNENFVLSEKLDTKATEIKQLQKQIDSLNAQVKELKTQTSQQAENSEVIKDLYEYLCNVRVHKSYEDDSGLWFDISQGTHSGGSSDDYSIMDYKLGFVKGQAQVTEVIYAPVLKQRSTEELYSLQSKLPEYLFETLSFPLSSLNQFYNKIAKSLNKKREKKDETE
partner: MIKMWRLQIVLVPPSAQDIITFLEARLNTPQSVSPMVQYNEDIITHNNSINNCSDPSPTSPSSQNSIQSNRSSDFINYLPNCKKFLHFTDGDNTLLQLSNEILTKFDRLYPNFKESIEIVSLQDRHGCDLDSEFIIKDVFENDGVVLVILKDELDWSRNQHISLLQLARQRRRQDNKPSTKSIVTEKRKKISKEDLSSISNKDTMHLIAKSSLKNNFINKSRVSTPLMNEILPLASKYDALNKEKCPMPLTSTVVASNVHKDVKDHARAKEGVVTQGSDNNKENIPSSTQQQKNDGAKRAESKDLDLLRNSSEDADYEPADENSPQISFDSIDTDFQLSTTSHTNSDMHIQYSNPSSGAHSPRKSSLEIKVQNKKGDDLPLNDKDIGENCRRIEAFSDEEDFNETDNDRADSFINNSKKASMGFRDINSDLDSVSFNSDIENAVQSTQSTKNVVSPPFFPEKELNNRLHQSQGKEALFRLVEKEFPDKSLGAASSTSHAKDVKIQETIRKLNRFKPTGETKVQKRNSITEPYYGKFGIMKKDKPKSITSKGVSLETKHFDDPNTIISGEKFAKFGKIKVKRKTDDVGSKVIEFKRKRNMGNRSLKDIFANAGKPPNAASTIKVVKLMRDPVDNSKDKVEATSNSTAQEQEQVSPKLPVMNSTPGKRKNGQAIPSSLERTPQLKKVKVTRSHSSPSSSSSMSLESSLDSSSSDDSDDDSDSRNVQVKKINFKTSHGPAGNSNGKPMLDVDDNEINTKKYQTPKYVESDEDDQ

Variants of: B1
Conditions: with mis13_schpo mis13, Q9UUB5

Variant | effect of a mutation on the interaction
MRKNNMQTSKDSELKEQAKGKSSKLIHKLPKQRTRISQGQMHSTQDFVNNEDQDAYSVRENENELHINNSGMSELNKKLQLPNVELSTLSHTQEQEFNELNKLIRKINELQEFYLLEDLAKPVTNAGADADDTIVKDLKKELENEKKANHSLKNELLKTREQIKNYSKINILIKELFGLEVADCIEDEDGYRFNCKNTGRRGTLEYQLLLDDQNFTFTPRLNVQTDEELMKHLPDYLLEEAIFTKEQGKLFSARLMKALQD [I241A] | decreasing interaction
MRKNNMQTSKDSELKEQAKGKSSKLIHKLPKQRTRISQGQMHSTQDFVNNEDQDAYSVRENENELHINNSGMSELNKKLQLPNVELSTLSHTQEQEFNELNKLIRKINELQEFYLLEDLAKPVTNAGADADDTIVKDLKKELENEKKANHSLKNELLKTREQIKNYSKINILIKELFGLEVADCIEDEDGYRFNCKNTGRRGTLEYQLLLDDQNFTFTPRLNVQTDEELMKHLPDELLEEIIFTKEQGKLFSARLMKALQD [Y236E] | decreasing interaction
MRKNNMQTSKDSELKEQAKGKSSKLIHKLPKQRTRISQGQMHSTQDFVNNEDQDAYSVRENENELHINNSGMSELNKKLQLPNVELSTLSHTQEQEFNELNKLIRKINELQEFYLLEDLAKPVTNAGADADDTIVKDLKKELENEKKANHSLKNELLKTREQIKNYSKINILIKELFGLEVADCIEDEDGYRFNCKNTGRRGTLEYQLLLDDQNFTFTPRLNVQTDEELMKHLPDYLLEEDIFTKEQGKLFSARLMKALQD [I241D] | decreasing interaction

Variants of: B2
Conditions: with cenpc_schpo cnp3, Q9USR9

Variant | effect of a mutation on the interaction
MRKNNMQTSKDSELKEQAKGKSSKLIHKLPKQRTRISQGQMHSTQDFVNNEDQDAYSVRENENELHINNSGMSELNKKLQLPNVELSTLSHTQEQEFNELNKLIRKINELQEFYLLEDLAKPVTNAGADADDTIVKDLKKELENEKKANHSLKNELLKTREQIKNYSKINILIKELFGLEVADCIEDEDGYRFNCKNTGRRGTLEYQLLLDDQNFTFTPRLNVQTDEELMKHLPDALLEEIIFTKEQGKLFSARLMKALQD [Y236A] | decreasing interaction
MRKNNMQTSKDSELKEQAKGKSSKLIHKLPKQRTRISQGQMHSTQDFVNNEDQDAYSVRENENELHINNSGMSELNKKLQLPNVELSTLSHTQEQEFNELNKLIRKINELQEFYLLEDLAKPVTNAGADADDTIVKDLKKELENEKKANHSLKNELLKTREQIKNYSKINILIKELFGLEVADCIEDEDGYRFNCKNTGRRGTLEYQLLLDDQNFTFTPRLNVQTDEELMKHLPDYLLEEAIFTKEQGKLFSARLMKALQD [I241A] | decreasing interaction

Variants of: B3
Conditions: with tof2_yeast TOF2, Q02208

Variant | effect of a mutation on the interaction
MDPLTVYKNSVKQQIDSADLLVANLVNENFVLSEKLDTKATEIKQLQKQIDSLNAQVKELKTQTSQQAENSEVIKDLYEYLCNVRVHKSYEDDSGLWFDISQGTHSGGSSDDYSIMDYKLGFVKGQAQVTEVIYAPVLKQRSTEELYSLQSKLPEYLFETLSFPLSSLNQFYNEIAKSLNKKREKKDETE [K174E] | decreasing interaction
MDPLTVYKNSVKQQIDSADLLVANLVNENFVLSEKLDTKATEIKQLQKQIDSLNAQVKELKTQTSQQAENSEVIKDLYEYLCNVRVHKSYEDDSGLWFDISQGTHSGGSSDDYSIMDYKLGFVKGQAQVTEVIYAPVLKQRSTEELYSLQSKLPEYLFETDSFPLSSLNQFYNKIAKSLNKKREKKDETE [L161D] | decreasing interaction
MDPLTVYKNSVKQQIDSADLLVANLVNENFVLSEKLDTKATEIKQLQKQIDSLNAQVKELKTQTSQQAENSEVIKDLYEYLCNVRVHKSYEDDSGLWFDISQGTHSGGSSDDYSIMDYKLGFVKGQAQVTEVIYAPVLKQRSTEELYSLQSKLPEYLFETKSFPLSSLNQFYNKIAKSLNKKREKKDETE [L161K] | decreasing interaction
MDPLTVYKNSVKQQIDSADLLVANLVNENFVLSEKLDTKATEIKQLQKQIDSLNAQVKELKTQTSQQAENSEVIKDLYEYLCNVRVHKSYEDDSGLWFDISQGTHSGGSSDDYSIMDYKLGFVKGQAQVTEVIYAPVLKQRSTEELYSLQSKLPEELFETLSFPLSSLNQFYNKIAKSLNKKREKKDETE [Y156E] | decreasing interaction
MDPLTVYKNSVKQQIDSADLLVANLVNENFVLSEKLDTKATEIKQLQKQIDSLNAQVKELKTQTSQQAENSEVIKDLYEYLCNVRVHKSYEDDSGLWFDISQGTHSGGSSDDYSIMDYKLGFVKGQAQVTEVIYAPVLKQRSTEELYSLQSKLPEALFETLSFPLSSLNQFYNKIAKSLNKKREKKDETE [Y156A] | decreasing interaction
